Test results as given in US20200179510A1 (YALE UNIVERSITY, published 2020).

Target: T1, Recombinant mouse DKK1 protein (R&D) (mouse, UniProt O54908 32-272, limits assumed)
T1 construct: Bought recombinant protein, coated on the ELISA plate at 20 ng/ml
T1 sequence (looked up): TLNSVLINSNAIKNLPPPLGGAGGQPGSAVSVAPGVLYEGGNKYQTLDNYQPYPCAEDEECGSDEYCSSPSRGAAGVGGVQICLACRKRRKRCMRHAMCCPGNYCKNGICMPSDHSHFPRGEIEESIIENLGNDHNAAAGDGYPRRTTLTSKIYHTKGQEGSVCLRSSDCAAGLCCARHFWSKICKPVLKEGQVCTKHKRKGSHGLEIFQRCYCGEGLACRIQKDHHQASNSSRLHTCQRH
Test: ELISA, recombinant mouse DKK1 coated at 20 ng/ml
Experimental: Recombinant mouse DKK2 or DKK1 protein (20 ng/ml, R&D) in a blocking buffer (1% BSA in PBS) was incubated in a 384-well microtiter plate for overnight at 4° C. The plate was washed with PBS twice and incubated with the blocking buffer for one hour at room temperature. The plate was then incubated with the anti-DKK2 5F8 antibody in the blocking buffer for 1 hour at room temperature. After repeatedly washing, the plate was incubated with an HRP-conjugated secondary antibody for 1 hour at room temperature. A chemiluminance substrate (Thermo Fisher 37070) was added to the plate, and the plate was read by an EnVision plate reader.

B1: Mouse monoclonal antibody to DKK2 (5F8) (antibody, V domains shown)
VH: GAELVRPGASVKLSCKASGYSFTNYWMNWVKQRPGQGLEWIGMIHPSDSETRLNQKFKDKATLTVDKSSSTAYMQLSSPTSEDSAVYYCAREGRLGLRSYAMDYWGQGTSVTVSS
VL: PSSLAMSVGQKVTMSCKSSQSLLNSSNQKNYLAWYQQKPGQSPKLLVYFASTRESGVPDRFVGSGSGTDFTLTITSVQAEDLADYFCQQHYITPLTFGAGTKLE
notes: Mouse hybridoma antibody; IgG3 served as its isotype control; also called anti-DKK2 5F8 antibody; anti-DKK2 antibody 5F8
**Q.** Does B1 bind?
**A.** no binding
